One block for each binder: values may come before it.
Tests used:
[1] = target: K. lactis Cdc13EBM (KlCdc13 residues 213-240) (Kluyveromyces lactis); test: ITC
[2] = target: KlCdc13EBM-N (KlCdc13 residues 213-222) (Kluyveromyces lactis); test: ITC
[3] = target: T1, S. cerevisiae Ku70/80 heterodimer (S. cerevisiae, UniProt P32807 1-602; Q04437 1-629); test: pull-down
T1 sequence (looked up) 1: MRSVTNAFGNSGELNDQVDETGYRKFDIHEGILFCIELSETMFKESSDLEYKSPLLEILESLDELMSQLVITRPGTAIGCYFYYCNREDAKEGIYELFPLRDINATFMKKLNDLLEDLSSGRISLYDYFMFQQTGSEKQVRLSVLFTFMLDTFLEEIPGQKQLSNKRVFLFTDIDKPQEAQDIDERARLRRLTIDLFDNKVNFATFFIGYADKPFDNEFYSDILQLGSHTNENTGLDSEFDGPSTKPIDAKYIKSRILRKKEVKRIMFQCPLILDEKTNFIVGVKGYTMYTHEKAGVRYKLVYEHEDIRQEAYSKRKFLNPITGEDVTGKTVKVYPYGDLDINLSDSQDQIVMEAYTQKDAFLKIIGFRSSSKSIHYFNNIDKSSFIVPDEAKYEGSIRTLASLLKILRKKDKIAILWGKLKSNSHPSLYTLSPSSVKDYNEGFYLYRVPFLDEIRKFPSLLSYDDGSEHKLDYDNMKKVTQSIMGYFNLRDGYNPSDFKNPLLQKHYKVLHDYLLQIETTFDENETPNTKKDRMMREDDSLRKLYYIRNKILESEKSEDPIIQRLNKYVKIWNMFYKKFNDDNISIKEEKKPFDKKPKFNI
T1 sequence (looked up) 2: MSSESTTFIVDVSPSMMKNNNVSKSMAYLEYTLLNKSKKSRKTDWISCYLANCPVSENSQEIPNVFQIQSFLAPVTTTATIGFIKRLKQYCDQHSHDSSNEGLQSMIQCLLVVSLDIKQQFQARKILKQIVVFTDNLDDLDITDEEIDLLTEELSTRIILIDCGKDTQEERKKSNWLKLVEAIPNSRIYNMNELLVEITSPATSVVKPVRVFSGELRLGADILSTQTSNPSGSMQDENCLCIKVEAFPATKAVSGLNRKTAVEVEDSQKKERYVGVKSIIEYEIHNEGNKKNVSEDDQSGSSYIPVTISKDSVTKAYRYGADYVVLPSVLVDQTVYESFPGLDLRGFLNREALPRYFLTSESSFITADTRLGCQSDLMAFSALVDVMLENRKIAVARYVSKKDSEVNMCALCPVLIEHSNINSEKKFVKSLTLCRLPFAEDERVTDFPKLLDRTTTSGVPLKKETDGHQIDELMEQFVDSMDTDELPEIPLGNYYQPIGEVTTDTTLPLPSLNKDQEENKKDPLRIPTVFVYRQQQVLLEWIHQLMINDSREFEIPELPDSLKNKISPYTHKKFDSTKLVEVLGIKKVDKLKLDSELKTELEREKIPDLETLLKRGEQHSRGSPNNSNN

[4] = target: T2, S. cerevisiae Ku80vWA (residues 2-200) (S. cerevisiae, UniProt Q04437 2-200); test: ITC
T2 sequence (looked up): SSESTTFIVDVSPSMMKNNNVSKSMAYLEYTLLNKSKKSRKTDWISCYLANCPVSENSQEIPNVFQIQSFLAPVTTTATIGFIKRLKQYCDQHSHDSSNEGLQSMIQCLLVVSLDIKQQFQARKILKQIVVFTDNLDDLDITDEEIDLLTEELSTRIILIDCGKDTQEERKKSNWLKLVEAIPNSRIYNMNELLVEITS

Kd [1]: 5.9 µM
Kd [2]: 15.3 µM
B1: N-terminal domain of K. lactis Est1 (KlEst1, residues 2-600) (domain or fragment)
chain: DQKLNTDLQETFSGFQKQLQSVLETDFFRDDSLMKGAIQMIHSKIMQMLLQSLIPEGLHQDITTDTGSKKSEIRSSDAHRILDLTWKHVHYPIFKYFQNWRNRNVAEGSRPNYAGHRQLNSILQKIFPQIHKLYYSTLELIFANYNLTALIPSDTRSKLNISTKKLNDDASNVLKPEDSFSIDCVMASQRCLLYIGCSQRYKIIMEHLSDRYQQADFQKPLRYLDIASTIVPSVGETFLQRGICYTHTKNFGNAAYQFVRSSLSRLPSDAGIPNFTNLLGDPNGSLFKKLLNSLDDLKVQETIKKRIINMEIMEFYILPLIGSHIFPQTWKNNRHSDRLKHFQTLLFDKIEIRYIKNISMIFQDLILLIGSFHMYQMINGVSSNTTSSAATIMPNDKTLMNGNGSANSINNSGNSNIRSIQSETKFLEFIFKFFTHLIDKVIMKEFKNCEMFQYLAMARIMMCWIKSHKNVLKFAHRSTSFCQSMVNLTNELLSSNDLSISFEHLHRPTRDYFYEEDIMLKEFGPTKFTLSDFNDEKLLSMDNLPDRLVGKSKNKLTAKEEHSSRVQVLVYSNKKFLEKNCCGFKLDTEKKRYVHTAVK

binding result [3]: binds
Binder: EKISNSKLLSLLRSKT (peptide, UniProt P11978 100-115, looked up) [Sir4KBM (GST pull-down)]

Kd [4]: 5.1 µM
Binder: EKISNSKLLSLLRSKT (peptide, UniProt P11978 100-115, looked up) [S. cerevisiae Sir4KBM (residues 100-115)]

binding result [4]: binds
Binder: EKISNSKLRSLLRSKT (peptide, UniProt P11978 100-115, looked up) [Sir4KBM L108R]
